Assay results as given in US20170233449A1.

Biological target: type I interferon receptor (IFNAR1 and IFNAR2) on cells (human) (UniProt P17181)
Test: cell-based or functional assay

type I interferon receptor (IFNAR1 and IFNAR2) on cells (human), sequence (P17181 28-557, chain 1 of 2): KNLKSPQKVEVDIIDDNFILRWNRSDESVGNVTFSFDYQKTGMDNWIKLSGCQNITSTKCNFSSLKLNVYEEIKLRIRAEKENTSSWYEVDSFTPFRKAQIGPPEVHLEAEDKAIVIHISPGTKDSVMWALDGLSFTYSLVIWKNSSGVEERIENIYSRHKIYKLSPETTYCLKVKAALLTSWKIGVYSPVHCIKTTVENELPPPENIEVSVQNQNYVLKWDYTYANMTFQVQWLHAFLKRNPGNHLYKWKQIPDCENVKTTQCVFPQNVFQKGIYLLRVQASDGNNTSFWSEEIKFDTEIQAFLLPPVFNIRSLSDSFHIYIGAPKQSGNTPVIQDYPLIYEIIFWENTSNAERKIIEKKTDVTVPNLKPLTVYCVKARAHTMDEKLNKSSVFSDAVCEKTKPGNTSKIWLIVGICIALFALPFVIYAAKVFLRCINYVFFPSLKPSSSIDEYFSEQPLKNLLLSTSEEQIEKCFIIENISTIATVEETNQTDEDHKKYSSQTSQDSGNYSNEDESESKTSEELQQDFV
type I interferon receptor (IFNAR1 and IFNAR2) on cells (human), sequence (P48551 27-515, chain 2 of 2, further chain): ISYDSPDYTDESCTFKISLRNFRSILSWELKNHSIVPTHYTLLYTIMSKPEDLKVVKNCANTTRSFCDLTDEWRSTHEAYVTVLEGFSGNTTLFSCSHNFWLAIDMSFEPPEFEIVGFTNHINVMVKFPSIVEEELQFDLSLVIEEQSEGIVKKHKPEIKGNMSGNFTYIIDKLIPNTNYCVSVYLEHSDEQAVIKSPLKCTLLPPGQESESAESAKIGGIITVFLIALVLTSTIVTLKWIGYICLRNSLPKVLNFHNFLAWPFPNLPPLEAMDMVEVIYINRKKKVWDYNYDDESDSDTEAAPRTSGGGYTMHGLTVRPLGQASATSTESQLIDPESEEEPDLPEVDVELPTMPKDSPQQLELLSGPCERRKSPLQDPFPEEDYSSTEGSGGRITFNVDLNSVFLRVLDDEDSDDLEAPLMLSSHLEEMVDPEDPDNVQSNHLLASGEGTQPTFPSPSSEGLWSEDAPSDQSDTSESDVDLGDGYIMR

human interferon-β1 (IFNβ), free wild type (from UniProt P01574 22-187) (ligand)
EC50 Off Target (pM) iLite: 0.799 pM | EC50 On Target (PM) ARP-1: 0.0105 nM
